Results published in PMC8092299, “Bifunctional Malic/Malolactic Enzyme Provides a Novel Mechanism for NADPH-Balancing in Bacillus subtilis” (mBio, 2021).

What was measured:
MaeB = target: T1, MaeB (Escherichia coli, UniProt P76558); assay: flow-injection TOF MS, lactate formation (malolactic activity); format: biochemical; conditions: NAD+, malate, pyruvate and 1 mM NADPH; 10 mM potassium phosphate pH 7.4, 2.5 mM MgCl2, 50 mM KCl, 1 mM NaHCO3, room temperature
T1 construct: His-tagged from ASKA His tag collection library, overexpressed in E. coli, Ni-NTA purified, tag kept
T1 sequence (P76558 1-759): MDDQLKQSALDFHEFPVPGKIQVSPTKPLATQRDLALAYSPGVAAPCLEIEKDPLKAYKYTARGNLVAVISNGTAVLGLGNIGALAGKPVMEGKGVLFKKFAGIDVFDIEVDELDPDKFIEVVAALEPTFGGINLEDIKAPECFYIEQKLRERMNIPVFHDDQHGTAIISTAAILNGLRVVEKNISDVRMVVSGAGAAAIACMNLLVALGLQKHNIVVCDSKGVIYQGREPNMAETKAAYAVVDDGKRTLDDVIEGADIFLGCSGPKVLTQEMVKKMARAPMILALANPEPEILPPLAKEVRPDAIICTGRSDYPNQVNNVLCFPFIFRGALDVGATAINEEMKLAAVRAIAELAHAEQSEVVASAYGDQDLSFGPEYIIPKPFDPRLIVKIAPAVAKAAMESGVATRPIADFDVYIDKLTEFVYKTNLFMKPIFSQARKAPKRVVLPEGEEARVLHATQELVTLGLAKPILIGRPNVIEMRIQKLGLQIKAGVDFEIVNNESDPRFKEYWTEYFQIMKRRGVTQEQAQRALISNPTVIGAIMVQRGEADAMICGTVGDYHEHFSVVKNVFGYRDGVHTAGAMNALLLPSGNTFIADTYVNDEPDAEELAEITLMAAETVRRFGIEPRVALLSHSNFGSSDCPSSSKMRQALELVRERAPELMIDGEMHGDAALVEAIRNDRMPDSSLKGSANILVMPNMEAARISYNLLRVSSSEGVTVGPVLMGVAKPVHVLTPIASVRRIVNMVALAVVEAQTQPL

purified protein [1] = substrate: NC(=O)C1=CN([C@@H]2O[C@H](COP(=O)(O)OP(=O)(O)OC[C@H]3O[C@@H](n4cnc5c(N)ncnc54)[C@H](OP(=O)(O)O)[C@@H]3O)[C@@H](O)[C@H]2O)C=CC1; assay: purified protein; format: biochemical, Bacillus subtilis; conditions: reductive carboxylation, 20 mM pyruvate, 50 mM NaHCO3, 5 mM MgCl2, 50 mM KCl, 100 mM Tris-HCl pH 7.8, 37°C, varied: cofactor
purified protein [2] = substrate: CC(=O)C(=O)O; assay: purified protein; format: biochemical, Bacillus subtilis; conditions: reductive carboxylation, NADH and NADPH both added at 0.2 mM, 50 mM NaHCO3, 5 mM MgCl2, 50 mM KCl, 100 mM Tris-HCl pH 7.8, 37°C

## O=C(O)C[C@H](O)C(=O)O [malate]
MaeB
  flow-injection TOF MS, lactate formation (malolactic activity): we observed lactate production and, thus, malolactic activity by MaeB

B1: YtsJ (Bacillus subtilis subsp. subtilis str. 168) (protein)
chain: MSLREEALHLHKVNQGKLESKSKVEVRNAKDLSLAYSPGVAEPCKDIHEDINKVYDYTMKGNMVAVVTDGTAVLGLGNIGPEAALPVMEGKAVLFKSFAGVDAFPIALNTNDVDKIVETVKLLEPTFGGVNLEDIAAPNCFIIEERLKKETNIPVFHDDQHGTAIVTVAGLVNALKLSGKSMSSIKVVANGAGAAGIAIIKLLHHYGVRDIVMCDSKGAIYEGRPNGMNDVKNEVAKFTNQDRKDGSLKDVIVDADVFIGVSVAGALTKEMVQSMAKDPIIFAMANPNPEIMPEDAREAGASVVGTGRSDFPNQVNNVLAFPGIFRGALDVRATHINEEMKIAAVEAIASLVSEDELSADYVIPAPFDKRVAPAVAKAVAKAAMETGVARITVDPEEVAEKTRKLTIIGE
notes: His6-tagged, overexpressed in E. coli (QIAexpress), Ni-NTA purified, tag kept
Purified protein [1]
  Km: 0.8 ± 0.5 mM
Purified protein [2]
  Km: 5.3 ± 1.3 mM
